For this data set, the target named is purified complex of human cardiac RLC, human ventricular ELC and the β-myosin heavy chain light chain binding fragment (aa778-840), P10916.
Chain of purified complex of human cardiac RLC, human ventricular ELC and the β-myosin heavy chain light chain binding fragment (aa778-840), P10916 (P10916 2-166, chain 1 of 3): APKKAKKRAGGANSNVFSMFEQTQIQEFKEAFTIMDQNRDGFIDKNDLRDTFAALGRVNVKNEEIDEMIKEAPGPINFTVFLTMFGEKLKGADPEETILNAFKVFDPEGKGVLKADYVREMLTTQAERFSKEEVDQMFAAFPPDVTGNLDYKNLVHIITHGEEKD
Chain of purified complex of human cardiac RLC, human ventricular ELC and the β-myosin heavy chain light chain binding fragment (aa778-840), P10916 (chain, as listed by the source, chain 2 of 3): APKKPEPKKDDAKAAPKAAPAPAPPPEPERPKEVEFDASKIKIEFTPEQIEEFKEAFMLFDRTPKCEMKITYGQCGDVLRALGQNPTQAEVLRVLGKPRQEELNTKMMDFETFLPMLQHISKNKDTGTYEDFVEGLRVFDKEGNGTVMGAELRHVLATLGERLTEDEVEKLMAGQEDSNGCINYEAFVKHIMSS
Chain of purified complex of human cardiac RLC, human ventricular ELC and the β-myosin heavy chain light chain binding fragment (aa778-840), P10916 (chain, as listed by the source, chain 3 of 3): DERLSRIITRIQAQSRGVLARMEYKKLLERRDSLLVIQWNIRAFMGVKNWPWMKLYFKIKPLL

B1: mutant human cMLCK (ala 87 val, ala 95 glu), full length, with amino-terminal FLAG tag (protein)
chain: MATENGAVELGIQNPSTDKAPKGPTGERPLAAGKDPGPPDPKKAPDPPTLKKDAKAPASEKGDGTLAQPSTSSQGPKGEGDRGGGPVEGSAGPPEALPQQTATPETSVKKPKAEQGASGSQDPGKPRVGKKAAEGQAAARRGSPAFLHSPSCPAIISSSEKLLAKKPPSEASELTFEGVPMTHSPTDPRPAKAEEGKNILAESQKEVGEKTPGQAGQAKMQGDTSRGIEFQAVPSEKSEVGQALCLTAREEDCFQILDDCPPPPAPFPHRMVELRTGNVSSEFSMNSKEALGGGKFGAVCTCMEKATGLKLAAKVIKKQTPKDKEMVLLEIEVMNQLNHRNLIQLYAAIETPHEIVLFMEYIEGGELFERIVDEDYHLTEVDTMVFVRQICDGILFMHKMRVLHLDLKPENILCVNTTGHLVKIIDFGLARRYNPNEKLKVNFGTPEFLSPEVVNYDQISDKTDMWSMGVITYMLLSGLSPFLGDDDTETLNNVLSGNWYFDEETFEAVSDEAKDFVSNLIVKDQRARMNAAQCLAHPWLNNLAEKAKRCNRRLKSQILLKKYLMKRRWKKNFIAVSAANRFKKISSSGALMALGV
For the protein B1, the K, (printed so; presumably Km) came to 17 µM and the Vmax (pmoles min^-1 ng^-1) came out at 216.

B2: human cardiac myosin light chain kinase (cMLCK), full length, wild type, with amino-terminal FLAG tag (protein)
chain: MATENGAVELGIQNPSTDKAPKGPTGERPLAAGKDPGPPDPKKAPDPPTLKKDAKAPASEKGDGTLAQPSTSSQGPKGEGDRGGGPAEGSAGPPAALPQQTATPETSVKKPKAEQGASGSQDPGKPRVGKKAAEGQAAARRGSPAFLHSPSCPAIISSSEKLLAKKPPSEASELTFEGVPMTHSPTDPRPAKAEEGKNILAESQKEVGEKTPGQAGQAKMQGDTSRGIEFQAVPSEKSEVGQALCLTAREEDCFQILDDCPPPPAPFPHRMVELRTGNVSSEFSMNSKEALGGGKFGAVCTCMEKATGLKLAAKVIKKQTPKDKEMVLLEIEVMNQLNHRNLIQLYAAIETPHEIVLFMEYIEGGELFERIVDEDYHLTEVDTMVFVRQICDGILFMHKMRVLHLDLKPENILCVNTTGHLVKIIDFGLARRYNPNEKLKVNFGTPEFLSPEVVNYDQISDKTDMWSMGVITYMLLSGLSPFLGDDDTETLNNVLSGNWYFDEETFEAVSDEAKDFVSNLIVKDQRARMNAAQCLAHPWLNNLAEKAKRCNRRLKSQILLKKYLMKRRWKKNFIAVSAANRFKKISSSGALMALGV
Regarding B2, the K, (printed so; presumably Km) turned out to be 6 µM and the Vmax (pmoles min^-1 ng^-1) amounted to 115.

Source of the values: patent US20040126860.
